Reference: patent publication US20230341394A1

Molecular target: CR3022 IgG antibody

Substance	assay signal (TR-FRET ratio) (TR-FRET ratio)
anti-IgG Nanobody (Chromotek Nano-Secondary alpaca anti-human IgG) (VHH)	0.6
anti-IgG antibody (Bethyl, A80-104A)	0.25
